Data published in publication PMC4888461 (Biochemical Journal, 2016).
Like-named read-outs stand apart in the source and are kept apart here. Blank lines part the entries; values can stand above or below the molecule they belong to.

B1: BMP-2 (bone morphogenetic protein 2), wild type (ligand, UniProt P12643 283-396, looked up)
chain: QAKHKQRKRLKSSCKRHPLYVDFSDVGWNDWIVAPPGYHAFYCHGECPFPLADHLNSTNHAIVQTLVNSVNSKIPKACCVPTELSAISMLYLDENEKVVLKNYQDMVVEGCGCR
B2: His-tagged fl-Gremlin-1 (natural protein, human, UniProt O60565 25-184, looked up)
chain: KKKGSQGAIPPPDKAQHNDSEQTQSPQQPGSRNRGRGQGRGTAMPGEEVLESSQEALHVTERKYLKRDWCKTQPLKQTIHEEGCNSRTIINRFCYGQCNSFYIPRHIRKEEGSFQSCSFCKPKKFTTMMVTLNCPELQPPTKKKRVTRVKQCRCISIDLD
B3: His-tagged ΔN-Gremlin-1 (domain or fragment, human, UniProt O60565 72-184, looked up)
chain: EVLESSQEALHVTERKYLKRDWCKTQPLKQTIHEEGCNSRTIINRFCYGQCNSFYIPRHIRKEEGSFQSCSFCKPKKFTTMMVTLNCPELQPPTKKKRVTRVKQCRCISIDLD
B4: untagged ΔN-Gremlin-1 (domain or fragment, human, UniProt O60565 72-184, looked up)
chain: B3 chain

Legend:
[1] = biological target: His-tagged fl-Gremlin-1 (human) (UniProt O60565); experiment: BLI
[2] = biological target: His-tagged ΔN-Gremlin-1 (human) (UniProt O60565); experiment: BLI
[3] = biological target: His-tagged ΔN-Gremlin-1 (human) (UniProt O60565); experiment: BLI; remark: listed apart in the source
[4] = biological target: His-tagged fl-Gremlin-1 (human) (UniProt O60565); experiment: BLI; remark: listed apart in the source
His-tagged fl-Gremlin-1 [5] = biological target: B2; experiment: BLI
His-tagged fl-Gremlin-1 [6] = biological target: B2; experiment: BLI; remark: listed apart in the source
SEC-SAXS = biological target: the molecule itself; experiment: SEC-SAXS
SEC-MALS = biological target: the molecule itself; experiment: SEC-MALS
[7] = biological target: B1; experiment: BLI
[8] = biological target: B1; experiment: BLI; remark: listed apart in the source
[9] = biological target: B1; experiment: BLI; remark: listed apart in the source

Kd [1]: 66.1 nM | Kd [2]: 75.4 nM | Kd [3]: 77.8 nM
Molecule: BMP-2 mutant # 1 (49 F → A) (ligand)

Kd [1]: 45.9 nM | Kd [2]: 44.7 nM | Kd [4]: 32.5 nM
Molecule: BMP-2 mutant # 2 (66 L → R) (ligand)

Kd [1]: 30.4 nM | Kd [2]: 95.9 nM | Kd [3]: 175 nM
Molecule: BMP-2 mutant # 3 (49 F → A, 66 L → R) (ligand)

Kd [1]: 47.2 nM | Kd [2]: 176 nM
Molecule: BMP-2 mutant # 4 (33 V → T, 34 A → S) (ligand)

Kd [1]: 176 nM | Kd [4]: 176 nM | koff [3]: 0.001 s⁻¹
Molecule: BMP-2 mutant # 5 (98 V → T, 100 L → N) (ligand)

Kd [2]: 301 nM
Molecule: BMP-2 mutant # 6 (90 L→ Q, 92 L → R) (ligand)

Molecule: B1
Kd (His-tagged fl-Gremlin-1 [5]): 5.6 nM | Kd (His-tagged fl-Gremlin-1 [6]): 9 nM | koff (His-tagged fl-Gremlin-1 [6]): 0.0018 s⁻¹

Molecule: B2
stoichiometry N (SEC-SAXS): 2

Molecule: B3
stoichiometry N (SEC-MALS): 2 | Kd [7]: 5.2 nM | Kd [8]: 16.7 nM | koff [8]: 0.005 s⁻¹

Molecule: B4
Kd [9]: 8.5 nM
